The supplement of paper PMC9170038

Test system: K4 kissing-loop RNA reporter
Assay: apparent KD of K4 kissing-loop reporter; higher = weaker reporter binding
Settings: Eterna round: R107
Experimental: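 RNA-MaP round R107: designed RNA switches with theophylline, tryptophan, arginine or FMN aptamers are transcribed on-chip within common flanks. They are titrated with a labelled K4 kissing-loop RNA reporter in RNA-MaP buffer (100 mM Tris pH 7.5, 80 mM KCl, 4 mM MgCl2), without ligand or with the indicated ligand. Median apparent KD per design.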

[1] = input ligand: theophylline 20 uM
[2] = input ligand: tryptophan 2.4 mM
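Further: bound reporter read as fluorescence of individual clusters on recovered sequencing chips by microscopy, with normalized cluster intensities fitted with a binding model.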

Sequence	apparent KD of K4 kissing-loop reporter (input ligand: FMN 200 uM)	apparent KD of K4 kissing-loop reporter (input ligand: arginine 13.2 mM)	apparent KD of K4 kissing-loop reporter (input ligand: none)	apparent KD of K4 kissing-loop reporter [1]	apparent KD of K4 kissing-loop reporter [2]
AAGUGUGUGGCGGCCGCCACUAGUCUCCAGUGAUGUUGGAGAUAUCACGUAAGUGAUAUCCGACAUAGGACCGGGCCAUAUAGAA [Same State - Tryptophan B (Freestyle 21)]	0.601 µM	0.318 µM	0.688 µM	0.556 µM	0.474 µM
AAUAAAAUCACGGCCGCCACUGAUACUAGUAUUAGCAGUGAUGUUGCUAUGUAUAAUUUAUUAAAUAGGACCGGGUGAAUAUUUA [#25 K4 Tryptophan B Exclusion]	0.298 µM	0.22 µM	0.267 µM	0.35 µM	0.256 µM
AAUAAAAUCACGGCCGCCACUGAUGCUAAUAUUAGCAGUGAUGUUGCUAUGUAUAUUUUAUUUAACAGGACCGGGUGAAUAUUUA [JR_ExcTryptoB_Sub014]	0.225 µM	0.184 µM	0.228 µM	0.212 µM	0.133 µM
AAUAAAAUCACGGCCGCCACUGAUUUUUUUAUUAGGAGUGAUGUUCCUAUGACUAUAUUAUUUAACAGGACCGGGUGAAUAUUUA [JR_SSTryptoB_Sub023]	0.0796 µM	0.0975 µM	0.0874 µM	0.0933 µM	0.0745 µM
AAUAAAAUCACGGCCGCCACUGAUUUUUUUAUUAGGAGUGAUGUUCCUUUGUCUAUAUACCUUAACAGGACCGGGUGAAUAUUUA [JR_SSTryptoB_Sub022]	0.0543 µM	0.0934 µM	0.0674 µM	0.0955 µM	0.0521 µM
AAUAAAAUCACGGCCGCCACUGGUACUAGUAUUAGCAGUGAUGUUGCUAUGUAUAAUUUAUUAAAUAGGACCGGGUGAAUAUUUA [#27 K4 Tryptophan B Exclusion]	0.326 µM	0.281 µM	0.238 µM	0.233 µM	0.208 µM
AAUAACUAGUAUAUUUGUAAUAAAACAGAUACCAGUGAUAAUAAACACCCUUGGCAGCUGAUCGAGUGAUGUUCGUUUAUUUUAA [JR_SSTheophyA_Sub004]	0.102 µM	0.0965 µM	0.124 µM	0.13 µM	0.0785 µM
AAUAACUAGUAUUUUUUUAAUAAUACAGAUACCAGUGAUAAUAAACACCCUUGGCAGCUGAUCGAGUGAUGUUCGUUUAUUUUAA [JR_SSTheophyA_Sub003]	0.0573 µM	0.0833 µM	0.064 µM	0.112 µM	0.054 µM
AAUAAGCGCGGAAGGAGCGCCGCCAGUGAUGUUGGGAGUUAGAUACCAGUGAUGUUGGGCCGGCAGGUAGGUCGCCGCAAAGCUU [Exclusion Arginine B Gf 14]	0.208 µM	0.0865 µM	0.165 µM	0.137 µM	0.138 µM
AAUAAUGGAGUGAUGUUCCAGUAAUGGGAUACCAGACAUGAAAAUGUCCCUUGGCAGCUCAAAGGUCUAGUGAUGUUAGAAAGAA [KL-SSTheo-A5 #Double Kiss]	0.273 µM	0.3 µM	0.31 µM	0.282 µM	0.232 µM
AAUACAGUGUCGGCCGCCACUGUAACAUGCCAUGAGACAUGAGACAUGAGUGAUGUUCAUGUAGACAGGACCGGGACUCAUGUAU [KL-SSTryp-B3 #analogue]	0.45 µM	0.373 µM	0.455 µM	0.37 µM	0.227 µM
AAUACGUUCACGGCCGCCACUGAAUAAUUGGUAAGUAGUGAUGUUACUUUACAUAUCUUAUUUAACAGGACCGGGUGAUCGUUUA [JR_Nu_ExcTryptoB_Sub028]	0.13 µM	0.108 µM	0.122 µM	0.105 µM	0.142 µM
AAUAUAAAGCAGUGAUGUUGCUUAUGAGAAGGAGCGCACGAAAGUGCAGGUAGGUCGCUCAGCCAAGUGGACGAAAACGUCCACA [whbob_SS_Arginine_A_sa106]	0.0821 µM	0.0925 µM	0.0863 µM	0.0853 µM	0.0721 µM
AAUAUAGUGAUGUUAUAUAAGAAGGAGUUACGAGGACCGGUACGGCCGCCACUCGAAACGAGUGAGGAUUUGGGAGAUUGGGUUU [SSTryptA.M]	0.493 µM	0.443 µM	0.474 µM	0.324 µM	0.389 µM
AAUCAAUACAGAAGGAGCGUGACAAUUACUAUUGAAUUAGGAGCUAGUGAUGUUAGCAUAACACAGGUAGGUCGCUGUACAUUUA [JR_SSArginiB_Sub012]	0.145 µM	0.175 µM	0.163 µM	0.182 µM	0.148 µM
AAUCAAUACAGAAGGAGCGUGACAAUUACUAUUGAUUCAGGAGCUAGUGAUGUUAGCAUUUCACAGGUAGGUCGCUGUACAUUUA [JR_SSArginiB_Sub013]	0.165 µM	0.203 µM	0.201 µM	0.213 µM	0.153 µM
AAUCGCAGUGAUGUUGCGAUUCCGUUGAGGGAGGAUAUUGGUAAUACAAGAAGGUUCGGUUACGGGAGAUGUUAGUAAUAGGGCC [Exclusion FMN A GF21]	0.0462 µM	0.0413 µM	0.0618 µM		0.0852 µM
AAUGGAGGCUGAAGGAGCGCCGCCAGUGAUGUUGGGAGUUAGAUACCAGUGAUGUUGGGCCGGCAGGUAGGUCGCGGUUUUUAUU [Exclusion Arginine B Gf 16]	0.186 µM	0.0784 µM	0.136 µM	0.153 µM	0.126 µM
AAUGUACAGGGAAGGAGCGUAGUCCAGUGAUGUUGGAAUUAAAUUCCUGUGAUGUUGGUUAUACAGGUAGGUCGCCCUAAAGUGC [KL-XARG-B21]	0.112 µM	0.0922 µM	0.108 µM	0.118 µM	0.0933 µM
AAUUUAGUGACGGCCGCCACUAGGGUGAUUUUUUUGUUUGAGUGAUGUUUUGAUGUUUGAUUUUGUAGGACCGGGUUAGGUGAUG [cccmullin]	0.327 µM	0.31 µM	0.343 µM	0.363 µM	0.262 µM
AAUUUAGUGACGGCCGCCACUAUGGUGAUUUAUUUGUUUGAGUGAUGUUUUGAUGUUUGAUUUUGUAGGACCGGGUUAGGUGAUG [aaacmullin]	0.355 µM	0.293 µM	0.364 µM	0.354 µM	0.279 µM

Sequence	apparent KD of K4 kissing-loop reporter (input ligand: FMN 200 uM)	apparent KD of K4 kissing-loop reporter (input ligand: arginine 13.2 mM)	apparent KD of K4 kissing-loop reporter (input ligand: none)	apparent KD of K4 kissing-loop reporter [1]	apparent KD of K4 kissing-loop reporter [2]
AAUUUAUUAACUGAUACCAGACUUAAUGAAUUGUAAAUUACUAGUGAUGUUAGUGAAUCUGUCCCUUGGCAGCAGUAUUUAUUAA [JR_ExcTheophyB_Sub010]	0.144 µM	0.209 µM	0.173 µM	0.208 µM	0.124 µM
AAUUUAUUAUCUGAUACCAGACUUUUUCUUGUUUAUAAGUCAAGUGAUGUUUGACUUUUAGUCCCUUGGCAGCAGUAUUUUUUAA [JR_Nu_SSTheophyB_Sub026]	0.125 µM	0.128 µM	0.123 µM	0.113 µM	0.114 µM
ACACGCAACUAUAGACCAGUGAUGUUGGAACGAGGACCGGUACGGCCGCCACUCGAGCGGACGAUCUACGCCUCUUAUGCUAACG [theeternabot_exclusion_KL_Trp_A_15]	0.482 µM	0.481 µM	0.552 µM	0.545 µM	0.35 µM
ACACUAUCGUCAUAGACGGUAGUGAAAAGUGAGGAUAUGAGUGAUGUUAGAAGGCACUAAGACUGUAUCGAAUAGAUACAGUCAA [FmnA 4 #K4BetweenAptamer #OpenEnded]	0.803 µM	0.262 µM	0.384 µM	0.292 µM	0.349 µM
ACACUAUCGUCAUAGACGGUAGUGAAAGCUCAGGAUAUGAGUGAUGUUAGAAGGGAGUAAAUCUUAGGUAUCGAAUAGAUACCAA [FmnA 7 #K4BetweenAptamer #OpenEnded]	1.22 µM	0.364 µM	0.508 µM	0.287 µM	0.416 µM
ACAUCGGUUGAGAGUGAUGUUCCUUGUGUUCGAGGACCGGUACGGCCGCCACUCGGGUAGAAAAUAACAGAUGUGUUUCCUUUUU [BDazzled - #18 SS Tryptophan A]	0.164 µM	0.0805 µM	0.171 µM	0.181 µM	0.209 µM
ACCAUCAAAGAUGGCCAGGACUCAACUGAUACCAGAGUGAAAACACUCCCUUGGCAGCAGGUGAGUGAUGUUCACGAGUCCUGGA [Omel KL Theo A SS B v7]	0.117 µM	0.082 µM	0.215 µM	0.169 µM	0.147 µM
ACCAUUUUACCGGCAGUAGUGAUGUUACUCCGAGGACCGGUACGGCCGCCACUCGCGAACGUAGGGUCGCGCACUCAAAGAGUGC	0.1 µM	0.0756 µM	0.106 µM	0.067 µM	0.0897 µM
ACCCUGGGUCCCGAAAGGGACCCAGGGAGUGAGGAUAUGUGGAAACACAGAAGGCACAGCACAGUGAUGUUGUGCGACGAAAGUC [#02 K4 FMN A Same State]	0.566 µM	0.0975 µM	0.401 µM	0.175 µM	0.217 µM
ACCGCAUUGGGAUGAUCCCAAUGCGCUGGUCGAGGACCGGUACGGCCGCCACUCGUCCAGUGAUGUUGGACUAGGGCAACUGAAG [Bileesma]	0.519 µM	0.27 µM	0.261 µM	0.303 µM	0.109 µM
ACCUACCAUUAGUGAUGUUAAUGGACGGAAGGAGCGCGGAUAUCCGCAGGUAGGUCGCCGAAGGCUAGACAUUGUCUAGCCAUUA [AK1.2 SS Arginine A]	0.225 µM	0.186 µM	0.196 µM	0.166 µM	0.182 µM
ACCUACGAUCACAAAAGUGAUUGUAGGAUCUAGGAUAUGCUGAAGAGCAGAAGGAGAGUGAUGUUCUCAACUCACGAAAGUGAGA [whbob_Ex_FMNA__2th188]	0.382 µM	0.222 µM	0.198 µM	0.258 µM	0.175 µM
ACGAUCAUGUCGGCCGCCACUGAGAGUAGUGAUGUUACUUUUAUGUUUUAGUUAUAAUAUUUGAACAGGACCGGGACAUGUUCGU [JR_ExcTryptoB_Sub023]	0.103 µM	0.0848 µM	0.0853 µM	0.0801 µM	0.0922 µM
ACGAUUUACAGAAGGAGCGUGUAUUUAACUACAAUUAUCUUAGCGAGUGAUGUUCGUUUUACACAGGUAGGUCGCUGUAUAUCGA [JR_ExcArginiB_Sub011]	0.218 µM	0.303 µM	0.263 µM	0.374 µM	0.22 µM
ACGCUGUGAAUAACACAGCGAAUAAAUUCGCGAGGACCGGUACGGCCGCCACUCGCUAACUGCGAGUGAUGUUCGAUAAUAAAAU [Mat - Mod of OpenEnded 3 - D13]	0.176 µM	0.0808 µM	0.172 µM	0.201 µM	0.0911 µM
ACGGAGUGAUGUUCCGGCCUCCCAGCAGAUACCAGCAGUCGCGAUUGCCCUUGGCAGCUGUCCGCGGCAUCCACUUGUAGCGGUA [theeternabot_exclusion_KL_Theo_A_12]	0.223 µM	0.173 µM	0.204 µM	0.222 µM	0.197 µM
ACGUAGUUCUAGGAUACCAGCCAAGGACGCCAGGACAAAAGUCCUGGCGCCAGUGAUGUUGGCCCUUGGCAGCCUAGAACUACGA [Omei KL Theo B Exc B v5]	0.197 µM	0.168 µM	0.182 µM	0.205 µM	0.176 µM
ACGUAUAUCAGAGGAUAUCGUAUUAAUAUUUUAUCUAUCUAUAUAUGCAGUGAUGUUGCAAUAAUUCGAGAAGGCUGAUUUACGA [JR_ExcFMNB_Sub010]	0.112 µM	0.124 µM	0.0916 µM	0.133 µM	0.0873 µM
ACGUCAUCAAAAGGAUAUGCAUCGAAGUGAUGUUUCGUCAUAUCAGUCUGAUUGCAGCAAUUAGGAGCAGAAGGUUUAGUCCGGU [theeternabot_exclusion_KL_FMN_B_11]	0.0916 µM	0.0807 µM	0.0919 µM	0.0776 µM	0.0831 µM
ACGUGUCACUGAAGGAGCGUCUACCGAAUACGAGUGAUGUUGGUAUACCACUUAUAUAGUGGACAGGUAGGUCGCAGUGAUACGU [Arg B Ex t4]	0.987 µM	0.769 µM	0.938 µM	0.757 µM	0.837 µM
ACUCUUGCGUAUGAUACCAGCUUGUACCGCCACAUAUAUUCUAAGAGUUGAGUGAUGUUUAGCCCUUGGCAGCAUACUUGUGCGU [theeternabot_exclusion_KL_Theo_B_42]	0.706 µM	0.546 µM	0.778 µM	0.606 µM	0.702 µM
